# T1: PpTCP18 (Prunus persica, UniProt A0A251PBZ8 1-468)
# T1 sequence: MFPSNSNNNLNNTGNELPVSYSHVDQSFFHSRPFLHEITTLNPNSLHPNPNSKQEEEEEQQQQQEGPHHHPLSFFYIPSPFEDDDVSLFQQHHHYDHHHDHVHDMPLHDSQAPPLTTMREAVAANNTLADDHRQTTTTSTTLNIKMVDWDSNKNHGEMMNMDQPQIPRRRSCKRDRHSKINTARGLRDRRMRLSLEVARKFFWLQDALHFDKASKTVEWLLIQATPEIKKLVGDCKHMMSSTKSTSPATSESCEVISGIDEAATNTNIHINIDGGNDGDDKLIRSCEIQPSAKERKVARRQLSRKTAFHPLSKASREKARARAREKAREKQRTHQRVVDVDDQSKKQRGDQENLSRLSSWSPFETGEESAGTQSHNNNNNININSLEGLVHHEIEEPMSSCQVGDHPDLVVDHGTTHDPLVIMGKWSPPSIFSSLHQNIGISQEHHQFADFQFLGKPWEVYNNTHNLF
# Columns and labels:
# PpTCP18 [1] = target: T1, PpTCP18; assay: EMSA; weakened by 100-fold unlabeled probe; Thermo Scientific EMSA kit, manufacturer's instructions; buffer, salt, pH and temperature not stated; details: protein: recombinant; tags: MBP; chain copies: 2; label: 5' biotin; blunt
# PpTCP18 [2] = target: T1, PpTCP18; assay: EMSA; Thermo Scientific EMSA kit, manufacturer's instructions; buffer, salt, pH and temperature not stated; details: protein: recombinant; tags: MBP; chain copies: 2; label: 5' biotin; blunt
Binder,binding result (PpTCP18 [1]),binding result (PpTCP18 [2])
PpLBO1 promoter probe (dsDNA) DNA 1: GTAAATACTCCAAACCATTACACTAGTGGGTCCTTTACTAATTACATTGTTTTAA DNA 2: TTAAAACAATGTAATTAGTAAAGGACCCACTAGTGTAATGGTTTGGAGTATTTAC,binds,–
PpMAX3 promoter probe (dsDNA) DNA 1: CGTAACCCTCCATTTAAAAAAGTGGGTCCCAAATCCCAAAGCATGAGTGGATGGAGAGGAA DNA 2: TTCCTCTCCATCCACTCATGCTTTGGGATTTGGGACCCACTTTTTTAAATGGAGGGTTACG,binds,–
PpMAX4 promoter probe (dsDNA) DNA 1: ATATTGTAATTTTTCACTGGCATACTGGTCCCTAATCACCAATTAACGCAACAT DNA 2: ATGTTGCGTTAATTGGTGATTAGGGACCAGTATGCCAGTGAAAAATTACAATAT,binds,–
PpLBO1 mutated probe (GGGTCC to AAAAAA) (dsDNA) DNA 1: GTAAATACTCCAAACCATTACACTAGTAAAAAATTTACTAATTACATTGTTTTAA DNA 2: TTAAAACAATGTAATTAGTAAATTTTTTACTAGTGTAATGGTTTGGAGTATTTAC,–,no binding
PpMAX4 mutated probe (GGTCCC to AAAAAA) (dsDNA) DNA 1: ATATTGTAATTTTTCACTGGCATACTAAAAAATAATCACCAATTAACGCAACAT DNA 2: ATGTTGCGTTAATTGGTGATTATTTTTTAGTATGCCAGTGAAAAATTACAATAT,–,no binding

# From publication PMC9832876, “PpTCP18 is upregulated by lncRNA5 and controls branch number in peach (Prunus persica) through positive feedback regulation of strigolactone biosynthesis”
